The text below walks through data of paper PMC5061722.

Test in all cases: SEC
Experiment [1] concerns the target EpsE-XcpR CM-Hcp1 chimera fusion (UniProt P37093).
Experiment [2] addresses full-length EpsE-Hcp1 fusion (pET21(d)epsE(1-503)-8aa-hcp1-his6) (UniProt P37093).
Experiment [3] addresses truncated ΔN1-EpsE-Hcp1 fusion (pET21(d)epsE(100-503)-8aa-hcp1-his6) (UniProt P37093).

“EpsE-XcpR CM-Hcp1 chimera fusion (from UniProt P37093)” gave a stoichiometry N in experiment [1] of 6.

In turn, “full-length EpsE-Hcp1 fusion (pET21(d)epsE(1-503)-8aa-hcp1-his6) (from UniProt P37093 1-503)” came in with a stoichiometry N in experiment [2] of 6.

In experiment [3], “truncated ΔN1-EpsE-Hcp1 fusion (pET21(d)epsE(100-503)-8aa-hcp1-his6) (from UniProt P37093 100-503)” showed a stoichiometry N of 6.
